{"source": "paper PMC11911400", "about": "“Mechanism of ASF1 engagement by CDAN1” (Nature Communications, 2025)", "binders": {"B1": {"name": "FLAG-tagged CDIN1 (F-CDIN1) (natural protein, UniProt Q9Y2V0 1-281, looked up)", "chain": "MILTKAQYDEIAQCLVSVPPTRQSLRKLKQRFPSQSQATLLSIFSQEYQKHIKRTHAKHHTSEAIESYYQRYLNGVVKNGAAPVLLDLANEVDYAPSLMARLILERFLQEHEETPPSKSIINSMLRDPSQIPDGVLANQVYQCIVNDCCYGPLVDCIKHAIGHEHEVLLRDLLLEKNLSFLDEDQLRAKGYDKTPDFILQVPVAVEGHIIHWIESKASFGDECSHHAYLHDQFWSYWNRFGPGLVIYWYGFIQELDCNRERGILLKACFPTNIVTLCHSIA", "notes": "C15orf41); cDNA synthesized by IDT; source: Expi293, transiently transfected, in lysate and purified in complexes (anti-FLAG, Strep-Tactin); not shown: 3xFLAG, N-terminal, kept"}, "B2": {"name": "Strep-CDAN1C (CDAN1 MA3 domain, residues 1008-1227) (domain or fragment, human, UniProt Q8IWY9 1008-1227, looked up)", "chain": "GERRGCSRACEHHAPLPSHLISEIKDVLSLAVGPRDPDEGVSPEHLEQLLGQLGQTLRCRQFLCPPAEQHLAKCSVELASLLVADQIPILGPPAQYRLERGQARRLLHMLLSLWKEDFQGPVPLQLLLSPRNVGLLADTRPREWDLLLFLLRELVEKGLMGRMEIEACLGSLHQAQWPGDFAEELATLSNLFLAEPHLPEPQLRACELVQPNRGTVLAQS", "notes": "also called ST-CDAN1C; CDAN1 C-term; source: Expi293, transiently transfected, purified in complex with F-CDIN1 (anti-FLAG, Strep-Tactin); not shown: 3xStrep-II-TEV, N-terminal, kept"}, "B3": {"name": "Strep-tagged CDAN1 (ST-CDAN1), wildtype (natural protein, human)", "chain": "MAAVLESLLREEVSVAAVVRWIARSTQGSEDNAGEAAALSSLRALRKEFVPFLLNFLREQSSRVLPQGPPTPAKTPGASAALPGRPGGPPRGSRGARSQLFPPTEAQSTAAEAPLARRGGRRRGPGPARERGGRGLEEGVSGESLPGAGGRRLRGSGSPSRPSLTLSDPPNLSNLEEFPPVGSVPPGPTGTKPSRRINPTPVSEERSLSKPKTCFTSPPISCVPSSQPSALDTSPWGLGLPPGCRSLQEEREMLRKERSKQLQQSPTPTCPTPELGSPLPSRTGSLTDEPADPARVSSRQRLELVALVYSSCIAENLVPNLFLELFFVFQLLTARRMVTAKDSDPELSPAVLDSLESPLFQSIHDCVFFAVQVLECHFQVLSNLDKGTLKLLAENERLLCFSPALQGRLRAAYEGSVAKVSLVMPPSTQAVSFQPETDNRANFSSDRAFHTFKKQRDVFYEVLREWEDHHEEPGWDFEKGLGSRIRAMMGQLSAACSHSHFVRLFQKQLLQMCQSPGGAGGTVLGEAPDVLSMLGADKLGRLWRLQERLMAPQSSGGPCPPPTFPGCQGFFRDFILSASSFQFNQHLMDSLSLKIQELNGLALPQHEPNDEDGESDVDWQGERKQFAVVLLSLRLLAKFLGFVAFLPYRGPEPPPTGELQDSILALRSQVPPVLDVRTLLQRGLQARRAVLTVPWLVEFLSFADHVVPLLEYYRDIFTLLLRLHRSLVLSQESEGKMCFLNKLLLLAVLGWLFQIPTVPEDLFFLEEGPSYAFEVDTVAPEHGLDNAPVVDQQLLYTCCPYIGELRKLLASWVSGSSGRSGGFMRKITPTTTTSLGAQPSQTSQGLQAQLAQAFFHNQPPSLRRTVEFVAERIGSNCVKHIKATLVADLVRQAESLLQEQLVTQGEEGGDPAQLLEILCSQLCPHGAQALALGREFCQRKSPGAVRALLPEETPAAVLSSAENIAVGLATEKACAWLSANITALIRREVKAAVSRTLRAQGPEPAARGERRGCSRACEHHAPLPSHLISEIKDVLSLAVGPRDPDEGVSPEHLEQLLGQLGQTLRCRQFLCPPAEQHLAKCSVELASLLVADQIPILGPPAQYRLERGQARRLLHMLLSLWKEDFQGPVPLQLLLSPRNVGLLADTRPREWDLLLFLLRELVEKGLMGRMEIEACLGSLHQAQWPGDFAEELATLSNLFLAEPHLPEPQLRACELVQPNRGTVLAQS", "notes": "Codanin-1 (CDAN1), human, 1227 residues; cDNA from Horizon Discovery/Dharmacon, its point mutation S421F corrected; same construct used in Expi293 and in Flp-In 293 T-REx cells; dimer by SEC-MALS and cryo-EM; also called Strep-CDAN1; WT CDAN1; source: Expi293, transiently transfected, in lysate and purified in complexes (anti-FLAG, Strep-Tactin); Flp-In 293 T-REx, transiently transfected, in …"}}, "key": {"[1]": {"molecular_target": "B3", "assay": "SEC-MALS; 200 µg of each purified complex at 5 µM on SRT SEC-300 column, PBS pH 7.4 with 1 mM DTT; DAWN HELEOS II; dn/dc 0.185", "details": "both partners purified"}, "[2]": {"molecular_target": "B1", "assay": "cryo-EM structure; purified ST-CDAN1C:F-CDIN1 (C:C) complex, cross-linked with BS3, 0.78 mg/mL; ~6 Å reconstruction, no model built", "details": "both partners purified"}, "[3]": {"molecular_target": "the molecule itself", "assay": "SEC-MALS; 200 µg of each purified complex at 5 µM on SRT SEC-300 column, PBS pH 7.4 with 1 mM DTT; DAWN HELEOS II; dn/dc 0.185"}, "[4]": {"molecular_target": "the molecule itself", "assay": "cryo-EM structure; tandem-purified C:C:A complex cross-linked with 250 µM BS3, 1 mg/mL; single-particle cryo-EM, 3.0 to 3.5 Å"}}}
{"binder": "B1", "values": [{"measurement": "stoichiometry N", "setting": "[1]", "value": 2, "unit": "CDIN1 per two CDAN1"}]}
{"binder": "B2", "values": [{"measurement": "binding result", "setting": "[2]", "value": "binds"}]}
{"binder": "B3", "values": [{"measurement": "stoichiometry N", "setting": "[3]", "value": 2, "unit": "CDAN1 per complex"}, {"measurement": "stoichiometry N", "setting": "[4]", "value": 2}]}
